In patent US20030220245A1:
No end group written: not given here.

T1: GCY-DLys-N-DArg-DCG (plasmin stable peptide)
T1 sequence: GCYKNRDCG

T2: GCYKNRDCG (plasmin sensitive peptide)
T2 sequence: GCYKNRDCG


How the values were obtained:
[1] = tested on: T1, GCY-DLys-N-DArg-DCG (plasmin stable peptide)
[2] = tested on: T2, GCYKNRDCG (plasmin sensitive peptide)
[3] = molecular target: receptors that recognize the sequence GRGDSPG; experiment: cell-based or functional assay

plasmin, sequence (P00747 20-580): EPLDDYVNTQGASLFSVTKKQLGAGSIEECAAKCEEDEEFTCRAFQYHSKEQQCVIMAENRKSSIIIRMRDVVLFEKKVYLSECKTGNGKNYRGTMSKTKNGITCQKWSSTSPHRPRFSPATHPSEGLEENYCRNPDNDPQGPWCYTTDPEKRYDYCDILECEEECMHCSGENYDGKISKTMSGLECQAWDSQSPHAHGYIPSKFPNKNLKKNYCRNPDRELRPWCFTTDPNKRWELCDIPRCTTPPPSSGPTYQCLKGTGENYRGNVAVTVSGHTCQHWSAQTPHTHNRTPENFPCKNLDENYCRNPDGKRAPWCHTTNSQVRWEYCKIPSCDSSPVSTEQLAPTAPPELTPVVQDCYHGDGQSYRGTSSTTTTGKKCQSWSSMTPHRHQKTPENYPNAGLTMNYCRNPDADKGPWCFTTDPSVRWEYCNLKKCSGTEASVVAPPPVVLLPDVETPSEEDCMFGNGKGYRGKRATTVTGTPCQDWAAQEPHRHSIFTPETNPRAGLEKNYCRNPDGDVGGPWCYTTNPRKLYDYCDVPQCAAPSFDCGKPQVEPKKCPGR
plasmin, sequence (P00747 581-810): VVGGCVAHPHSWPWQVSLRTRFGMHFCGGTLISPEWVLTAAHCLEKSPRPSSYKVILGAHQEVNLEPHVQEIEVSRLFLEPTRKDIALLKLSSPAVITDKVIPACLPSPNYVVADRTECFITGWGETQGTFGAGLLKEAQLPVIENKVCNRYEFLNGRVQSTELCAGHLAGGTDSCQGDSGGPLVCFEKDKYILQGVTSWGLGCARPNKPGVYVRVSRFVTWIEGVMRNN

Row | adhesion and spreading of human foreskin fibroblasts on conjugate addition PEG gels carrying the peptide on one of every 12 acrylates, 6 hours after seeding [3] [%] | Molecule | degradation of PEG-triacrylate/peptide gel by 0.2 units of plasmin in 200 microliters, 37 C [1] | degradation of PEG-triacrylate/peptide gel by 0.2 units of plasmin in 200 microliters, 37 C [2] | peptide degradation by plasmin, analytical C18 HPLC, plasmin at 1/1000 the peptide concentration, 37 C [2]
1 |  | plasmin | The DLys, DArg configuration gel has not been shown to degrade by plasminolysis. | The L-Lys, L-Arg configuration of the peptide was readily degraded by the enzyme. In one case, after 6 hours no gel remained. | most of the GCYKNRDCG peptide was degraded in approximately one hour at 37 °C
2 | 50 | GC(PEG acrylate)GYGRGDSPG [… (RGD-containing adhesion peptide)] |  |  | 
